Source: patent US20170081400A1 (CEPHALON, published 2017)

T1: human TL1A extracellular domain with N-terminal HIS and FLAG tag (human, UniProt O95150 72-251)
T1 construct: the whole entry is named; also called TNFSF15
T1 sequence: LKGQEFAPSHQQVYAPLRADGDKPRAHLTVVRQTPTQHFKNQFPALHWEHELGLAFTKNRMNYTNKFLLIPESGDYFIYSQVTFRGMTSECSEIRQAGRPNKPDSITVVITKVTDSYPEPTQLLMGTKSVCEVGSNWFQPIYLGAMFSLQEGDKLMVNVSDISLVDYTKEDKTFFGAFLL


Assays:
[1] = molecular target: T1, human TL1A extracellular domain with …; assay: SPR Run 7, antibody on Protein A, TL1A 5 ug/mL, timepoint 44
Source text: (§1) 1.5. Antibody expression and antigen binding as determined by SPR. Using a CM5 sensor chip (GE Healthcare) Protein A (Pierce) was coupled to the chip surface using an amine coupling kit (GE Healthcare). Protein A was coupled on flow cell 1 and 2 (or alternatively 3 and 4) using a BIACORE® T200. […] The amount of supernatant or purified protein (as well as the concentration) injected during the capture stage varied between runs and is specified in the header of the Tables 3-11. At the end of injection of the supernatant or purified antibody the change in response units was measured. This value was reported as Capture Level in Tables 3-11. […] The response units were measured prior to the end of the dissociation phase. […] The sensorgrams were double referenced (flow cell 2 is subtracted from flow cell 1 and a buffer blank). As there were a large number of antibody variants to screen, these were screened across different runs (Tables 3-11). […] A summary of the conditions used in each run is below:
(§2) 2.1. […] In some experiment the antibodies were purified using Protein A chromatography (See 1.4) and purified antibodies were used in BIACORE® (GE Healthcare) experiments.

[2] = molecular target: T1, human TL1A extracellular domain with …; assay: SPR Run 7, antibody on Protein A, TL1A 5 ug/mL, timepoint 220
Source text: as §1, §2

Binder	TL1A Binding Level (Early) [1]	TL1A Binding Level (Late) [2]
320-505 (antibody, human IgG1, name in Kabat numbering, V domains shown, full-length human IgG1, lambda) VH: QVQLVQSGAEVKKPGASVKVSCKASGYTFTSYDINWVRQAPGQGLEWMGWLNANSGNTGYAQKFQGRVTMTADRSTSTAYMELSSLRSEDTAVYYCAREVPETAAFEYWGQGTLVTVSS VL: QSVLTQPPSVSGAPGQRVTISCTSSSSDIGAGLGVHWYQQLPGTAPKLLIEGYYNRPSGVPDRFSGSKSGTSASLTITGLLPEDEGDYYCQSYDGTLSALFGGGTKLTVLG	118 RU	110 RU
320-499 (antibody, human IgG1, name in Kabat numbering, V domains shown, full-length human IgG1, lambda) VH: QVQLVQSGAEVKKPGASVKVSCKASGYTFTSYDINWVRQAPGQGLEWMGWLQPNSGNTGYAQKFQGRVTMTADRSTSTAYMELSSLRSEDTAVYYCAREVPETAAFEYWGQGTLVTVSS VL: QSVLTQPPSVSGAPGQRVTISCTSSSSDIGAGLGVHWYQQLPGTAPKLLIEGYYNRPSGVPDRFSGSKSGTSASLTITGLLPEDEGDYYCQSYDGTLSALFGGGTKLTVLG	122 RU	113 RU
320-501 (antibody, human IgG1, name in Kabat numbering, V domains shown, full-length human IgG1, lambda) VH: QVQLVQSGAEVKKPGASVKVSCKASGYTFTSYDINWVRQAPGQGLEWMGWLHPNSGNTGYAQKFQGRVTMTADRSTSTAYMELSSLRSEDTAVYYCAREVPETAAFEYWGQGTLVTVSS VL: QSVLTQPPSVSGAPGQRVTISCTSSSSDIGAGLGVHWYQQLPGTAPKLLIEGYYNRPSGVPDRFSGSKSGTSASLTITGLLPEDEGDYYCQSYDGTLSALFGGGTKLTVLG	118 RU	108 RU
320-508 (antibody, human IgG1, name in Kabat numbering, V domains shown, full-length human IgG1, lambda) VH: QVQLVQSGAEVKKPGASVKVSCKASGYTFTSYDINWVRQAPGQGLEWMGWLNDNSGNTGYAQKFQGRVTMTADRSTSTAYMELSSLRSEDTAVYYCAREVPETAAFEYWGQGTLVTVSS VL: QSVLTQPPSVSGAPGQRVTISCTSSSSDIGAGLGVHWYQQLPGTAPKLLIEGYYNRPSGVPDRFSGSKSGTSASLTITGLLPEDEGDYYCQSYDGTLSALFGGGTKLTVLG	19 RU	12 RU
320-498 (antibody, human IgG1, name in Kabat numbering, V domains shown, full-length human IgG1, lambda) VH: QVQLVQSGAEVKKPGASVKVSCKASGYTFTSYDINWVRQAPGQGLEWMGWLSPNSGNTGYAQKFQGRVTMTADRSTSTAYMELSSLRSEDTAVYYCAREVPETAAFEYWGQGTLVTVSS VL: QSVLTQPPSVSGAPGQRVTISCTSSSSDIGAGLGVHWYQQLPGTAPKLLIEGYYNRPSGVPDRFSGSKSGTSASLTITGLLPEDEGDYYCQSYDGTLSALFGGGTKLTVLG	90 RU	82 RU
320-497 (antibody, human IgG1, name in Kabat numbering, V domains shown, full-length human IgG1, lambda) VH: QVQLVQSGAEVKKPGASVKVSCKASGYTFTSYDINWVRQAPGQGLEWMGWLAPNSGNTGYAQKFQGRVTMTADRSTSTAYMELSSLRSEDTAVYYCAREVPETAAFEYWGQGTLVTVSS VL: QSVLTQPPSVSGAPGQRVTISCTSSSSDIGAGLGVHWYQQLPGTAPKLLIEGYYNRPSGVPDRFSGSKSGTSASLTITGLLPEDEGDYYCQSYDGTLSALFGGGTKLTVLG	135 RU	125 RU
320-495 (antibody, human IgG1, name in Kabat numbering, V domains shown, full-length human IgG1, lambda) VH: QVQLVQSGAEVKKPGASVKVSCKASGYTFTSYDINWVRQAPGQGLEWMGWKNPNSGNTGYAQKFQGRVTMTADRSTSTAYMELSSLRSEDTAVYYCAREVPETAAFEYWGQGTLVTVSS VL: QSVLTQPPSVSGAPGQRVTISCTSSSSDIGAGLGVHWYQQLPGTAPKLLIEGYYNRPSGVPDRFSGSKSGTSASLTITGLLPEDEGDYYCQSYDGTLSALFGGGTKLTVLG	84 RU	77 RU

Next, values leading:

TL1A Binding Level (Early) [1]	TL1A Binding Level (Late) [2]	Binder
89 RU	82 RU	320-492 (antibody, human IgG1, name in Kabat numbering, V domains shown, full-length human IgG1, lambda) VH: QVQLVQSGAEVKKPGASVKVSCKASGYTFTSYDINWVRQAPGQGLEWMGWQNPNSGNTGYAQKFQGRVTMTADRSTSTAYMELSSLRSEDTAVYYCAREVPETAAFEYWGQGTLVTVSS VL: QSVLTQPPSVSGAPGQRVTISCTSSSSDIGAGLGVHWYQQLPGTAPKLLIEGYYNRPSGVPDRFSGSKSGTSASLTITGLLPEDEGDYYCQSYDGTLSALFGGGTKLTVLG
41 RU	6 RU	320-503 (antibody, human IgG1, name in Kabat numbering, V domains shown, full-length human IgG1, lambda) VH: QVQLVQSGAEVKKPGASVKVSCKASGYTFTSYDINWVRQAPGQGLEWMGWLWPNSGNTGYAQKFQGRVTMTADRSTSTAYMELSSLRSEDTAVYYCAREVPETAAFEYWGQGTLVTVSS VL: QSVLTQPPSVSGAPGQRVTISCTSSSSDIGAGLGVHWYQQLPGTAPKLLIEGYYNRPSGVPDRFSGSKSGTSASLTITGLLPEDEGDYYCQSYDGTLSALFGGGTKLTVLG
97 RU	89 RU	320-506 (antibody, human IgG1, name in Kabat numbering, V domains shown, full-length human IgG1, lambda) VH: QVQLVQSGAEVKKPGASVKVSCKASGYTFTSYDINWVRQAPGQGLEWMGWLNSNSGNTGYAQKFQGRVTMTADRSTSTAYMELSSLRSEDTAVYYCAREVPETAAFEYWGQGTLVTVSS VL: QSVLTQPPSVSGAPGQRVTISCTSSSSDIGAGLGVHWYQQLPGTAPKLLIEGYYNRPSGVPDRFSGSKSGTSASLTITGLLPEDEGDYYCQSYDGTLSALFGGGTKLTVLG
69 RU	53 RU	320-500 (antibody, human IgG1, name in Kabat numbering, V domains shown, full-length human IgG1, lambda) VH: QVQLVQSGAEVKKPGASVKVSCKASGYTFTSYDINWVRQAPGQGLEWMGWLDPNSGNTGYAQKFQGRVTMTADRSTSTAYMELSSLRSEDTAVYYCAREVPETAAFEYWGQGTLVTVSS VL: QSVLTQPPSVSGAPGQRVTISCTSSSSDIGAGLGVHWYQQLPGTAPKLLIEGYYNRPSGVPDRFSGSKSGTSASLTITGLLPEDEGDYYCQSYDGTLSALFGGGTKLTVLG
48 RU	46 RU	320-493 (antibody, human IgG1, name in Kabat numbering, V domains shown, full-length human IgG1, lambda) VH: QVQLVQSGAEVKKPGASVKVSCKASGYTFTSYDINWVRQAPGQGLEWMGWDNPNSGNTGYAQKFQGRVTMTADRSTSTAYMELSSLRSEDTAVYYCAREVPETAAFEYWGQGTLVTVSS VL: QSVLTQPPSVSGAPGQRVTISCTSSSSDIGAGLGVHWYQQLPGTAPKLLIEGYYNRPSGVPDRFSGSKSGTSASLTITGLLPEDEGDYYCQSYDGTLSALFGGGTKLTVLG
88 RU	59 RU	320-502 (antibody, human IgG1, name in Kabat numbering, V domains shown, full-length human IgG1, lambda) VH: QVQLVQSGAEVKKPGASVKVSCKASGYTFTSYDINWVRQAPGQGLEWMGWLKPNSGNTGYAQKFQGRVTMTADRSTSTAYMELSSLRSEDTAVYYCAREVPETAAFEYWGQGTLVTVSS VL: QSVLTQPPSVSGAPGQRVTISCTSSSSDIGAGLGVHWYQQLPGTAPKLLIEGYYNRPSGVPDRFSGSKSGTSASLTITGLLPEDEGDYYCQSYDGTLSALFGGGTKLTVLG
150 RU	138 RU	320-494 (antibody, human IgG1, name in Kabat numbering, V domains shown, full-length human IgG1, lambda) VH: QVQLVQSGAEVKKPGASVKVSCKASGYTFTSYDINWVRQAPGQGLEWMGWHNPNSGNTGYAQKFQGRVTMTADRSTSTAYMELSSLRSEDTAVYYCAREVPETAAFEYWGQGTLVTVSS VL: QSVLTQPPSVSGAPGQRVTISCTSSSSDIGAGLGVHWYQQLPGTAPKLLIEGYYNRPSGVPDRFSGSKSGTSASLTITGLLPEDEGDYYCQSYDGTLSALFGGGTKLTVLG
88 RU	65 RU	320-504 (antibody, human IgG1, name in Kabat numbering, V domains shown, full-length human IgG1, lambda) VH: QVQLVQSGAEVKKPGASVKVSCKASGYTFTSYDINWVRQAPGQGLEWMGWLYPNSGNTGYAQKFQGRVTMTADRSTSTAYMELSSLRSEDTAVYYCAREVPETAAFEYWGQGTLVTVSS VL: QSVLTQPPSVSGAPGQRVTISCTSSSSDIGAGLGVHWYQQLPGTAPKLLIEGYYNRPSGVPDRFSGSKSGTSASLTITGLLPEDEGDYYCQSYDGTLSALFGGGTKLTVLG
27 RU	24 RU	320-507 (antibody, human IgG1, name in Kabat numbering, V domains shown, full-length human IgG1, lambda) VH: QVQLVQSGAEVKKPGASVKVSCKASGYTFTSYDINWVRQAPGQGLEWMGWLNQNSGNTGYAQKFQGRVTMTADRSTSTAYMELSSLRSEDTAVYYCAREVPETAAFEYWGQGTLVTVSS VL: QSVLTQPPSVSGAPGQRVTISCTSSSSDIGAGLGVHWYQQLPGTAPKLLIEGYYNRPSGVPDRFSGSKSGTSASLTITGLLPEDEGDYYCQSYDGTLSALFGGGTKLTVLG
93 RU	87 RU	320-496 (antibody, human IgG1, name in Kabat numbering, V domains shown, full-length human IgG1, lambda) VH: QVQLVQSGAEVKKPGASVKVSCKASGYTFTSYDINWVRQAPGQGLEWMGWWNPNSGNTGYAQKFQGRVTMTADRSTSTAYMELSSLRSEDTAVYYCAREVPETAAFEYWGQGTLVTVSS VL: QSVLTQPPSVSGAPGQRVTISCTSSSSDIGAGLGVHWYQQLPGTAPKLLIEGYYNRPSGVPDRFSGSKSGTSASLTITGLLPEDEGDYYCQSYDGTLSALFGGGTKLTVLG
